One block for each molecule: values may come before it.
Experiments:
[1] = target: GDF15/GFRAL complex (Homo sapiens) (UniProt Q99988); conditions: cited from earlier work
[2] = target: Fc-GDF15/GFRAL complex (formed beforehand) (human) (UniProt Q99988); assay: BLI; Fc-GDF15 (15 uM) immobilised on anti-hIgG Fc capture biosensors, saturated with GFRAL (3 uM), then RET^C634R 0.3-42 uM; saturation signals fitted to a sigmoidal model
[3] = target: RET^C634R extracellular domain dimer (human RET residues 1-635 with C634R, C86R and C216S) (human) (UniProt P07949); assay: SEC-MALS; Superdex 200 10/300 GL, 0.25 ml/min, RT, 20 mM Hepes pH 7.5, 100 mM NaCl, 1 mM CaCl2
[4] = target: T1, WT RET extracellular domain (human RET residues 1-635) (human, UniProt P07949 29-635, glycosylated (near-native glycans)); assay: native gel or EMSA; Blue Native PAGE; Fc-GDF15 dimer 2 uM + GFRAL 4 uM for 15 min (with or without thrombin), then RET^WT monomer 4 uM or RET^C634R dimer 2 uM; RET + copurified GDNF/GFRα1 at 1:1; 30 min at RT; run at 100 V, 4 °C; also after 5 min heating at 50-85 °C for melting curves; conditions: both partners purified
T1 construct: signal peptide in the construct; human RET extracellular domain, residues 1-635; TEV site before the His8-Flag tags; also called RET^WT; RET^WT ECD; source: HEK293T, transient expression, secreted; purified (Ni-NTA, anti-Flag)
T1 sequence (P07949 29-635): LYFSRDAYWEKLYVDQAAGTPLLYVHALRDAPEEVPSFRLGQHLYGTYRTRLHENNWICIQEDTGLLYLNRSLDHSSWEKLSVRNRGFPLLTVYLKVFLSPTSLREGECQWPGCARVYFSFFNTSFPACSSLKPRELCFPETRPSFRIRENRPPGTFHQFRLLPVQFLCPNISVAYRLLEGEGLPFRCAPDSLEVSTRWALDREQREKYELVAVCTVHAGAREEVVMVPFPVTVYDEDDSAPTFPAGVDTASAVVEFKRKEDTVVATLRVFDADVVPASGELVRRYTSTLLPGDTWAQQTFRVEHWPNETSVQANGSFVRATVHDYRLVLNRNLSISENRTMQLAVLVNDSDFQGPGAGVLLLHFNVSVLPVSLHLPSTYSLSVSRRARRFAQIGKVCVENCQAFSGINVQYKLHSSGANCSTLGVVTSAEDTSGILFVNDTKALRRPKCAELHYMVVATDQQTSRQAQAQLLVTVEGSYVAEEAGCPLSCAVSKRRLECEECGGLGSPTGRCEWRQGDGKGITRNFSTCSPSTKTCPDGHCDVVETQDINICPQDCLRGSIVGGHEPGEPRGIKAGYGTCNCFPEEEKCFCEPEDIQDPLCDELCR

Molecule: RET ECD (from UniProt P07949)
Kd [1]: 3.2 µM

Kd [2]: 8.5 µM | stoichiometry N [3]: 2
Molecule: RET^C634R extracellular domain dimer (human RET residues 1-635 with C634R, C86R and C216S) (from UniProt P07949 29-635) (domain or fragment)

binding result [4]: binds
B1: GDF15/GFRAL complex with the Fc removed by thrombin (formed beforehand) (complex, human)
chain 1: ARARNGDHCPLGPGRCCRLHTVRASLEDLGWADWVLSPREVQVTMCIGACPSQFRAANMHAQIKTSLHRLKPDTVPAPCCVPASYNPMVLIQKTDTGVSLQTYDDLLAKDCHCI
chain 2: SQTNNCTYLREQCLRDANGCKHAWRVMEDACNDSDPGDPCKMRNSSYCNLSIQYLVESNFQFKECLCTDDFYCTVNKLLGKKCINKSDNVKEDKFKWNLTTRSHHGFKGMWSCLEVAEACVGDVVCNAQLASYLKACSANGNPCDLKQCQAAIRFFYQNIPFNIAQMLAFCDCAQSDIPCQQSKEALHSKTCAVNMVPPPTCLSVIRSCQNDELCRRHYRTFQSKCWQRVTRKCHEDENCISTLSKQDLTCSGSDDCKAAYIDILGTVLQVQCTCRTITQSEESLCKIFQHMLHRKSCFNYPTLSNVKGMALYTRKHANKITLTGFHSPFNGE
notes: human GDF15, residues 195-308; human GFRAL, residues 19-351; as m4; not shown: modified Fc, N-terminal, cleaved; copies: 2 + 2

— PMC9490035, “Unexpected structures formed by the kinase RET C634R mutant extracellular domain suggest potential oncogenic mechanisms in MEN2A” (The Journal of Biological Chemistry, 2022)
